Laboratory results from paper PMC11558545 (2024).
Residue numbers refer to the chain shown, from its start. Values joined by “and” are separate entries in the source; they are usually repeats but may differ in a detail not shown here. Equal entries are not always repeated. Where two headings read alike, the source gives them in different places. Square brackets hold non-standard residues; d marks the D form. Ends that are not written are not given here. pT = C[C@@H](OP(=O)(O)O)[C@H](N)C(=O)O; pS = N[C@@H](COP(=O)(O)O)C(=O)O

T1: Arabidopsis 14-3-3 omega, full length (At14-3-3-ω^1−259) (Arabidopsis thaliana, UniProt Q01525 1-259)
T1 chain: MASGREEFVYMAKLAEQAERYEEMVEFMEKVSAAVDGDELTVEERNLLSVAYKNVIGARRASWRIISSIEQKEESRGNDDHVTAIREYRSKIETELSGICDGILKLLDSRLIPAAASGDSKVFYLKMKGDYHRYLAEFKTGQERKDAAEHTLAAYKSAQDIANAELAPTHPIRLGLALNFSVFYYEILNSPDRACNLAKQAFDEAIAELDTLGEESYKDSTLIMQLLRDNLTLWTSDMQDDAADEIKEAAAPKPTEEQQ

T2: Arabidopsis 14-3-3 lambda (At14-3-3-λ^1−248) (Arabidopsis thaliana, UniProt P48349 1-248)
T2 chain: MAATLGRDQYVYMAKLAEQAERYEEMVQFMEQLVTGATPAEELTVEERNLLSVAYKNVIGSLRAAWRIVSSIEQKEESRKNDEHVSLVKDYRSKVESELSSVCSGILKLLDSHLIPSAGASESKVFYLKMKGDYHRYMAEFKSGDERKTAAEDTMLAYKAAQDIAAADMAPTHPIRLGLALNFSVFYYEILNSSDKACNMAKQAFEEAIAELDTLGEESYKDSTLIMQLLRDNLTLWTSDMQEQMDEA

T3: Arabidopsis 14-3-3 isoform kappa (At14-3-3-κ^1−248) (Arabidopsis thaliana, UniProt P48348 1-248)
T3 chain: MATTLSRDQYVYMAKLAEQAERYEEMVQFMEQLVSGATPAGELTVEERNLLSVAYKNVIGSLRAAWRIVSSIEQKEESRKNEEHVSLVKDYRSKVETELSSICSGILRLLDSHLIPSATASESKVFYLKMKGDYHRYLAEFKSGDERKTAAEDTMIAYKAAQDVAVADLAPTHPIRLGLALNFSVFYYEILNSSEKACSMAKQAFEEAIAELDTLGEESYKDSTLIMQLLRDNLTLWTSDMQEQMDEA

T4: At14-3-3 λ^N233A (Arabidopsis thaliana, UniProt P48349 1-248, N233A)
T4 sequence: T2 chain with N233A

T5: biotinylated 14-3-3 ω dimer (Arabidopsis thaliana, UniProt Q01525 1-259, biotin (EZ-Link NHS-Biotin, equimolar amounts of protein and biotin; sites not stated))
T5 chain: T1 chain


Legend:
[1] = target: T1, Arabidopsis 14-3-3 omega, full length …; assay: ITC
[2] = target: T2, Arabidopsis 14-3-3 lambda …; assay: ITC
[3] = target: T3, Arabidopsis 14-3-3 isoform kappa …; assay: ITC
At14-3-3 λ^N233A = target: T4, At14-3-3 λ^N233A; assay: ITC
[4] = target: T3, Arabidopsis 14-3-3 isoform kappa …; assay: ITC
[5] = target: T5, biotinylated 14-3-3 ω dimer

Binder	Kd [1] [µM]	Kd [2] [µM]	Kd [3] [µM]	Kd (At14-3-3 λ^N233A) [µM]	Kd [4]	koff [5] [s⁻¹]
RISN[pS]AP [pBZR1^169−175 peptide]	0.88	0.81	0.57	5	0.38 µM and 0.4 µM	0.87
RISN[pS]CPV[pT]PPVSSPT [pBZR1^169−184 peptide]	–	–	–	–	3.1 µM and 3 µM	–
RKL[pT]FA [pBRI1^869−874 peptide]	–	–	–	40	16.7 µM and 17 µM	–
RGELF[pS]AP [pBKI1^265−272 peptide]	6.4	5.4	14.4	3.7	–	–
